B1: LINE1-full (parent)
chain: UACGUAGGUGGUUUUCCCCUGAUAGUGCUAAGGGGGCCUGGAAGUUUGGACUGGGCAGAGCUCAACACAGCGUGGCAAAGUGGCUGUGGCUAGACUGCCUCUCUGGAUUCCUCGUCACUCAGCAGGGCAUCUCUGAGAGAAAUGCC

Variants of: B1
Experiment: self-cleavage, relative activity (ratio to wild type); higher = more cleavage; in vitro, sequencing; the parent is a self-cleaving ribozyme

Variant | self-cleavage
A129G U132A | 1.54
A136G A140G | 1.51
A136G A140U | 1.29
C120A A121G | 1.39
C120A A121U | 0.93
G135A A140G | 1.18
U119A A136G | 1.12
U132A A140G | 1.41
C120U A121G | 0
C120U G126A | 2.01
U134G U143G | 0.88
A124G C146A | 0.84
A121U A136G | 1.47
A121U A136U | 1.07
G125A A140U | 0.61
U119C A121G | 1.23
U130A U143C | 1.25
A138G A142G | 1.39
U134C U143A | 1.37
U134C U143C | 1.21
U119A A141G | 1.74
A121C A138G | 2.34
G125U A138G | 2.25
C133A C145A | 1.51

Variant | self-cleavage
A121G G139A | 1.06
A129G U134G | 1.65
U119C U132G | 2.83
U119C U132C | 2.32
G127U A138G | 1.29
A121U C133U | 1.8
C133U A140G | 1.05
A129C U130C | 1.02
C120U | 1.37
C120A | 1.41
U130C C131U | 1.28
U119C A141U | 2.27
U119C A141C | 1.84
G139A | 0.89
G139U | 1.31
G139C | 1.53
G122A A124G | 0.62
A121U G126U | 1.5
G125U U143C | 1.08
U119C G122C | 2
U119C G122U | 2.35
A129U A142U | 2.13
U134A A142G | 1.18
G135U U143C | 1.63

Variant | self-cleavage
C120A A129G | 1.29
C123U G135C | 1.97
G137A A138G | 1.38
U119C A129G | 1.88
U132G A141G | 1.22
G127U A140G | 1.27
A124G G135U | 1.49
C133A A140C | 1.3
U130C A138G | 1.75
U130C A138U | 1.36
G135A A136G | 1.61
U130C A136G | 1.66
A129C U134A | 1.59
A129C U134C | 1.54
C131U A138G | 1.36
A136U A142G | 1.52
U134A U143A | 0.77
U134A U143C | 0.63
G122U A142G | 1.52
C133U A136G | 0.49
G125U U134C | 1.2
G135U A140U | 1.13
U130C G139A | 1.5
A124C A140G | 1.88

Variant | self-cleavage
U130G U143C | 1.5
U130A A138U | 1.64
U130A A138G | 1.31
C123U A142G | 1.32
A124G A129U | 1.06
A124G A129G | 0.96
U119C A140U | 0.97
A138G U143A | 1.45
C120U A140G | 1.1
G125U G144U | 1.72
U130C U134A | 1
G122U A136U | 1.31
G127A A136U | 1.65
G127A A136G | 1.5
A129U U130C | 1.49
C128U A141U | 1.62
C118U U132C | 1.81
U119A A142C | 1.95
A124G A141G | 1.39
A129U U132A | 0.04
A129U U132C | 1.3
G126A A140G | 1.49
A124U A136G | 1.43
G125A A129U | 0.46

Variant | self-cleavage
G125A A129G | 1.38
U132A G137A | 1.7
A121U C146U | 1.73
A121C A141G | 1.99
A129G A138U | 2.12
C123U A124G | 1.25
A121C G127U | 1.44
C133U A141G | 1.4
U130A G137A | 1.84
A129U A140U | 0.88
A136U A138U | 0.99
U132A U134C | 1.61
U134C G144A | 1.18
A129G A142G | 1.67
G125U A136G | 0.79
A121G U132A | 1.86
A124G A136C | 1.19
A124G A136G | 1.14
A129C G135A | 2.11
G127A C145A | 1.32
U134C A140U | 1.02
C123A A138G | 1.82
A138G A141U | 1.43
A138G A141G | 1.25

Variant | self-cleavage
A124U A129G | 1.72
U119A A121G | 1.27
C118U U143C | 0.87
G125A C146U | 1.36
U132C G135A | 1.19
U132A A141U | 0.14
U132C U143C | 1.24
U132C U143A | 1.35
U119G A136G | 0.94
C120U A141U | 0.95
A129G A136U | 2.26
A129G A140C | 0.74
A129G A140U | 1.8
A121U G137A | 2.09
C120U U134C | 1.27
U130A U132C | 1.41
U119A A138G | 2.02
A124G G125A | 0.75
U119G | 1.63
U119C | 1.59
U119A | 1.44
U119A U132C | 1.96
A121U A140C | 1.09
A121U A140G | 1.18

Variant | self-cleavage
A121C A142G | 1.1
G125A U143C | 0.64
U134A A138U | 1.72
U134A A138G | 1.63
A129U A141G | 1.34
C131U A136G | 1.39
A129U C133A | 1.26
A129U U143A | 1.59
A129U U143C | 1.64
C133U A142G | 1.14
A121G U134A | 1.32
A136U | 1.23
A136C | 1.34
A136G | 1.27
U132G A138G | 1.35
A121U U143C | 1.59
A124U G127U | 1.62
G125A A138G | 1.01
C131U A142G | 1.61
A129G G135A | 1.63
C120U U132C | 1.56
U132C U134C | 1.35
U132C U134A | 0.73

Source: the RNAGym collection of RNA variant scans (doi:10.7554/elife.90254)
